Measured values taken from patent US20250092108A1 (published 2025).

T1: human CD25 (IL-2Rα) (human, UniProt P01589 22-213)
T1 chain: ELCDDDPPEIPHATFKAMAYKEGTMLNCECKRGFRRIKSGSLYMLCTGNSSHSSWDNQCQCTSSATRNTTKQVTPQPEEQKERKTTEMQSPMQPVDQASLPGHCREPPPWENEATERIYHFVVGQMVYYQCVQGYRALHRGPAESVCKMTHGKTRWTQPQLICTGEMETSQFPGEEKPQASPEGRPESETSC


Experiments:
[1] = target: T1, human CD25 (IL-2Rα); test: Octet
[2] = target: CD122:CD132; test: Octet
[3] = target: T1, human CD25 (IL-2Rα); test: Biacore; pH 6.0
[4] = target: T1, human CD25 (IL-2Rα); test: Biacore; pH 7.4
[5] = target: T1, human CD25 (IL-2Rα); test: Biacore; pH 7.4
[6] = target: T1, human CD25 (IL-2Rα); test: Biacore; pH 6.0

| Kd [5] [nM] | Kd [6] [nM] | Binder | other results |
| --- | --- | --- | --- |
|  |  | XENP26109 (Fc fusion) chain 1: EPKSSDKTHTCPPCPAPPVAGPSVFLFPPKPKDTLMISRTPEVTCVVVDVKHEDPEVKFNWYVDGVEVHNAKTKPREEEYNSTYRVVSVLTVLHQDWLNGKEYKCKVSNKALPAPIEKTISKAKGQPREPQVYTLPPSREEMTKNQVSLTCDVSGFYPSDIAVEWESDGQPENNYKTTPPVLDSDGSFFLYSKLTVDKSRWEQGDVFSCSVMHEALHNHYTQKSLSLSPGK chain 2: APASSSTKKTQLQLEHLLLNLQMILNGINNYKNPKLTRMLTFKFYMPKKATELKHLQCLEEELKPLEEVLKLAQSKNFHLRPRDLISNINVIVLELKGSETTFMCEYADETATIVEFLNRWITFSQSIISTLTEPKSSDKTHTCPPCPAPPVAGPSVFLFPPKPKDTLMISRTPEVTCVVVDVKHEDPEVKFNWYVDGVEVHNAKTKPREEQYNSTYRVVSVLTVLHQDWLNGKEYKCKVSNKALPAPIEKTISKAKGQPREPQVYTLPPSREQMTKNQVKLTCLVKGFYPSDIAVEWESNGQPENNYKTTPPVLDSDGSFFLYSKLTVDKSRWQQGNVFSCSVMHEALHNHYTQKSLSLSPGK | Kd [1]: 28.5 nM; Kd [2]: 57.3 nM |
|  |  | 14192 R38E T41K C125S (protein) APTSSSTKKTQLQLEHLLLDLQMILNGINNYKNPKLTEMLKFKFYMPKKATELKHLQCLEEELKPLEEVLNLAQSKNFHLRPRDLISNINVIVLELKGSETTFMCEYADETATIVEFLNRWITFSQSIISTLT | Kd [3]: 31.1 nM; Kd [4]: 172 nM |
| 214 |  | 14216 R38V T41R C125S (protein) APTSSSTKKTQLQLEHLLLDLQMILNGINNYKNPKLTVMLRFKFYMPKKATELKHLQCLEEELKPLEEVLNLAQSKNFHLRPRDLISNINVIVLELKGSETTFMCEYADETATIVEFLNRWITFSQSIISTLT |  |
| 280 |  | 14206 T41E F42Y C125S (protein) APTSSSTKKTQLQLEHLLLDLQMILNGINNYKNPKLTRMLEYKFYMPKKATELKHLQCLEEELKPLEEVLNLAQSKNFHLRPRDLISNINVIVLELKGSETTFMCEYADETATIVEFLNRWITFSQSIISTLT |  |
|  | 83 | XENP14208 (T41M F42Y C125S) (protein) APTSSSTKKTQLQLEHLLLDLQMILNGINNYKNPKLTRMLMYKFYMPKKATELKHLQCLEEELKPLEEVLNLAQSKNFHLRPRDLISNINVIVLELKGSETTFMCEYADETATIVEFLNRWITFSQSIISTLT |  |
|  |  | 14194 R38N T41Q C125S (protein) APTSSSTKKTQLQLEHLLLDLQMILNGINNYKNPKLTNMLQFKFYMPKKATELKHLQCLEEELKPLEEVLNLAQSKNFHLRPRDLISNINVIVLELKGSETTFMCEYADETATIVEFLNRWITFSQSIISTLT | Kd [3]: 84.6 nM |
|  |  | 14202 R38Q T41S C125S (protein) APTSSSTKKTQLQLEHLLLDLQMILNGINNYKNPKLTQMLSFKFYMPKKATELKHLQCLEEELKPLEEVLNLAQSKNFHLRPRDLISNINVIVLELKGSETTFMCEYADETATIVEFLNRWITFSQSIISTLT | Kd [3]: 1710 nM; Kd [4]: 1240 nM |
|  |  | 14190 R38Q T41K C125S (protein) APTSSSTKKTQLQLEHLLLDLQMILNGINNYKNPKLTQMLKFKFYMPKKATELKHLQCLEEELKPLEEVLNLAQSKNFHLRPRDLISNINVIVLELKGSETTFMCEYADETATIVEFLNRWITFSQSIISTLT | Kd [3]: 489 nM; Kd [4]: 98.3 nM |
| 139 |  | 14207 T41D F42Y C125S (protein) APTSSSTKKTQLQLEHLLLDLQMILNGINNYKNPKLTRMLDYKFYMPKKATELKHLQCLEEELKPLEEVLNLAQSKNFHLRPRDLISNINVIVLELKGSETTFMCEYADETATIVEFLNRWITFSQSIISTLT |  |
|  |  | 14193 R38Q T41R C125S (protein) APTSSSTKKTQLQLEHLLLDLQMILNGINNYKNPKLTQMLRFKFYMPKKATELKHLQCLEEELKPLEEVLNLAQSKNFHLRPRDLISNINVIVLELKGSETTFMCEYADETATIVEFLNRWITFSQSIISTLT | Kd [3]: 533 nM; Kd [4]: 458 nM |
|  | 1710 | XENP14217 (R38P T41R C125S) (protein) APTSSSTKKTQLQLEHLLLDLQMILNGINNYKNPKLTPMLRFKFYMPKKATELKHLQCLEEELKPLEEVLNLAQSKNFHLRPRDLISNINVIVLELKGSETTFMCEYADETATIVEFLNRWITFSQSIISTLT |  |
|  | 57200 | XENP14214 (R38N T41R C125S) (protein) APTSSSTKKTQLQLEHLLLDLQMILNGINNYKNPKLTNMLRFKFYMPKKATELKHLQCLEEELKPLEEVLNLAQSKNFHLRPRDLISNINVIVLELKGSETTFMCEYADETATIVEFLNRWITFSQSIISTLT |  |
|  | 30300 | XENP14206 (T41E F42Y C125S) (protein) APTSSSTKKTQLQLEHLLLDLQMILNGINNYKNPKLTRMLEYKFYMPKKATELKHLQCLEEELKPLEEVLNLAQSKNFHLRPRDLISNINVIVLELKGSETTFMCEYADETATIVEFLNRWITFSQSIISTLT |  |
| 5950 |  | 14209 T41Q F42Y C125S (protein) APTSSSTKKTQLQLEHLLLDLQMILNGINNYKNPKLTRMLQYKFYMPKKATELKHLQCLEEELKPLEEVLNLAQSKNFHLRPRDLISNINVIVLELKGSETTFMCEYADETATIVEFLNRWITFSQSIISTLT |  |
| 326 |  | 14217 R38P T41R C125S (protein) APTSSSTKKTQLQLEHLLLDLQMILNGINNYKNPKLTPMLRFKFYMPKKATELKHLQCLEEELKPLEEVLNLAQSKNFHLRPRDLISNINVIVLELKGSETTFMCEYADETATIVEFLNRWITFSQSIISTLT |  |
|  |  | 14191 R38Q T41Q C125S (protein) APTSSSTKKTQLQLEHLLLDLQMILNGINNYKNPKLTQMLQFKFYMPKKATELKHLQCLEEELKPLEEVLNLAQSKNFHLRPRDLISNINVIVLELKGSETTFMCEYADETATIVEFLNRWITFSQSIISTLT | Kd [3]: 2470 nM; Kd [4]: 196 nM |
| 81 |  | 14208 T41M F42Y C125S (protein) APTSSSTKKTQLQLEHLLLDLQMILNGINNYKNPKLTRMLMYKFYMPKKATELKHLQCLEEELKPLEEVLNLAQSKNFHLRPRDLISNINVIVLELKGSETTFMCEYADETATIVEFLNRWITFSQSIISTLT |  |
|  | 319 | XENP14207 (T41D F42Y C125S) (protein) APTSSSTKKTQLQLEHLLLDLQMILNGINNYKNPKLTRMLDYKFYMPKKATELKHLQCLEEELKPLEEVLNLAQSKNFHLRPRDLISNINVIVLELKGSETTFMCEYADETATIVEFLNRWITFSQSIISTLT |  |
| 75.4 |  | 14215 R38N T41K C125S (protein) APTSSSTKKTQLQLEHLLLDLQMILNGINNYKNPKLTNMLKFKFYMPKKATELKHLQCLEEELKPLEEVLNLAQSKNFHLRPRDLISNINVIVLELKGSETTFMCEYADETATIVEFLNRWITFSQSIISTLT |  |
| 1110 |  | 14213 R38Q F42Y C125S (protein) APTSSSTKKTQLQLEHLLLDLQMILNGINNYKNPKLTQMLTYKFYMPKKATELKHLQCLEEELKPLEEVLNLAQSKNFHLRPRDLISNINVIVLELKGSETTFMCEYADETATIVEFLNRWITFSQSIISTLT |  |
|  | 2630 | XENP14209 (T41Q F42Y C125S) (protein) APTSSSTKKTQLQLEHLLLDLQMILNGINNYKNPKLTRMLQYKFYMPKKATELKHLQCLEEELKPLEEVLNLAQSKNFHLRPRDLISNINVIVLELKGSETTFMCEYADETATIVEFLNRWITFSQSIISTLT |  |
|  | 2430 | XENP14213 (R38Q F42Y C125S) (protein) APTSSSTKKTQLQLEHLLLDLQMILNGINNYKNPKLTQMLTYKFYMPKKATELKHLQCLEEELKPLEEVLNLAQSKNFHLRPRDLISNINVIVLELKGSETTFMCEYADETATIVEFLNRWITFSQSIISTLT |  |
|  | 128 | XENP14216 (R38V T41R C125S) (protein) APTSSSTKKTQLQLEHLLLDLQMILNGINNYKNPKLTVMLRFKFYMPKKATELKHLQCLEEELKPLEEVLNLAQSKNFHLRPRDLISNINVIVLELKGSETTFMCEYADETATIVEFLNRWITFSQSIISTLT |  |
| 149 |  | 14214 R38N T41R C125S (protein) APTSSSTKKTQLQLEHLLLDLQMILNGINNYKNPKLTNMLRFKFYMPKKATELKHLQCLEEELKPLEEVLNLAQSKNFHLRPRDLISNINVIVLELKGSETTFMCEYADETATIVEFLNRWITFSQSIISTLT |  |
